Biological target: T1, His6-Arc (Activity-regulated cytoskeleton-associated protein, full length) (mouse), Q9WV31
T1 chain: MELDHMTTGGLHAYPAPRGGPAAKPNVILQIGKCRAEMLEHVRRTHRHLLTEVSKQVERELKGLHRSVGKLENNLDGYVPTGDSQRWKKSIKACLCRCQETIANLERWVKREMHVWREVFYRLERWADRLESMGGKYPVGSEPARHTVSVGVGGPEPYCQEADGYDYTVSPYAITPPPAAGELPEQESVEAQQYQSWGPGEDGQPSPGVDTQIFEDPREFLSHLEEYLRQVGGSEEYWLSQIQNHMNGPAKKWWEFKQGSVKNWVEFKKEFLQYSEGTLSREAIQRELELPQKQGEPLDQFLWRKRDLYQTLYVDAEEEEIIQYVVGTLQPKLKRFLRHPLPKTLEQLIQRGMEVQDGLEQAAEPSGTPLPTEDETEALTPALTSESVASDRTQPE
Test: SEC + other: sucrose density gradient centrifugation
Details: remark: other sources report otherwise

stoichiometry N: 2
B1: His6-Arc (Activity-regulated cytoskeleton-associated protein, full length), Q9WV31 1-396 (natural protein)
chain: T1 chain
